Data set [1] deals with Hepatitis B surface antigen (HBsAg) (Hepatitis B virus) (UniProt P03138). As to the kind of experiment: pulldown. The following applies: magnetic bead pulldown with q-PCR; BD buffer, room temperature.
Data set [2] addresses HCV NS3 protein (Hepatitis C virus) (UniProt P27958). As to the kind of experiment: pulldown. The following applies: magnetic bead pulldown with q-PCR; BD buffer, room temperature.

pKd: −log10 of the molar value.

HCV NS3 protein (Hepatitis C virus), sequence (P27958 1027-1657): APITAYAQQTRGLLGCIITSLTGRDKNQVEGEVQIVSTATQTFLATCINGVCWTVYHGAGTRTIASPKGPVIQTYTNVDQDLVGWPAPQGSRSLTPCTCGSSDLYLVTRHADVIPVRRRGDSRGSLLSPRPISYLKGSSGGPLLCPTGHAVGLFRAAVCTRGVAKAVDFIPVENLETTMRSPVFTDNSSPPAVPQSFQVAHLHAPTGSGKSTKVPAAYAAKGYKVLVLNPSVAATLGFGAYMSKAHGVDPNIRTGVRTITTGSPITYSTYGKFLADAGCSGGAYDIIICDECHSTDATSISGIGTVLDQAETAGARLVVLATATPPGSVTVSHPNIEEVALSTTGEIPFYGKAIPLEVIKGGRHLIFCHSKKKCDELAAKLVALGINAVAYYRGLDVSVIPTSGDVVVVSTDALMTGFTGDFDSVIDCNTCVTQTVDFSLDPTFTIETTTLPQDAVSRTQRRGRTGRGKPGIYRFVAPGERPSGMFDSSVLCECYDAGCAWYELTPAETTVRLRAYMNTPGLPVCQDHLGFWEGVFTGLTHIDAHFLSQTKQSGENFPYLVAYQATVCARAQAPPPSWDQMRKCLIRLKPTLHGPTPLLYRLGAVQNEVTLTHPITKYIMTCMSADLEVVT

What is called pKd is the Kd on a negative log10 scale, so that one unit is a factor of ten. Read a low pKd as a high Kd. In data set [1], “AGCAGCACAGAGGTCCCAACCGGAATCTGCACCTCGCGTGCTACCGTGAA [K2-4]” had a pKd of 7.50. Take “AGCAGCACAGAGGTCCCCATGTCCACCTTTCTGTGGCGTGCTACCGTGAA [K3-1]”: in data set [2], the pKd is 7.80. For “AGCAGCACAGAGGTCCTGCATCACGAAGCCTGGCAGCGTGCTACCGTGAA [MP-1]”, the pKd in data set [1] is 7.55; in data set [2], 7.63.

The values are drawn from patent US20180095078.
